Laboratory results as given in PMC9959916, “A Highly Conserved Region in BRCA2 Suppresses the RAD51-Interaction Activity of BRC Repeats” (Veterinary Sciences, 2023).

B3: endogenous RAD51 (HeLa cells) (natural protein, human (endogenous in HeLa), UniProt Q06609 1-339, looked up)
chain: MAMQMQLEANADTSVEEESFGPQPISRLEQCGINANDVKKLEEAGFHTVEAVAYAPKKELINIKGISEAKADKILAEAAKLVPMGFTTATEFHQRRSEIIQITTGSKELDKLLQGGIETGSITEMFGEFRTGKTQICHTLAVTCQLPIDRGGGEGKAMYIDTEGTFRPERLLAVAERYGLSGSDVLDNVAYARAFNTDHQTQLLYQASAMMVESRYALLIVDSATALYRTDYSGRGELSARQMHLARFLRMLLRLADEFGVAVVITNQVVAQVDGAAMFAADPKKPIGGNIIAHASTTRLYLRKGRGETRICKIYDSPCLPEAEAMFAINADGVGDAKD
notes: RAD51 recombinase, endogenous in HeLa cells; source: endogenous, HeLa lysate

Columns and labels:
Conditions in all cases: partners not purified
[1] = target: B3; assay: co-IP; lysates of HeLa cells stably expressing FLAG-HA-NLS-fused canine BRCA2 peptides; 3 μg anti-RAD51 at 4 °C overnight, Protein G Dynabeads; peptides detected with anti-FLAG
[2] = target: T1, Gal4 DNA-binding domain-fused cBRC1-HCR-BRC2 A1108G (canine (Canis lupus familiaris), UniProt Q8MKI9 993-1248, A1108G); assay: two-hybrid; mammalian two-hybrid in HeLa cells: pM (Gal4 DNA-binding domain)-BRCA2 peptide, pVP16-canine RAD51, pG5-Luc firefly luciferase reporter, normalised to Renilla (pRL-TK); read two days after transfection
T1 construct: canine BRCA2, residues 993-1248 with A1108G, a mutation reported in a canine mammary tumor; source: HeLa, transiently transfected, mammalian two-hybrid fusion
T1 sequence (looked up): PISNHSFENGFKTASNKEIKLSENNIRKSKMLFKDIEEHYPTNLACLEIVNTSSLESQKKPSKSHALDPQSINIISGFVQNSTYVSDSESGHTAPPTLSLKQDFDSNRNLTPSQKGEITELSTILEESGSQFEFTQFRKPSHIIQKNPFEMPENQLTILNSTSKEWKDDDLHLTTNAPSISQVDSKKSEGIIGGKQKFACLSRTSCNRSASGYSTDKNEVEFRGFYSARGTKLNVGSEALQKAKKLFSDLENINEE

[3] = target: T2, FLAG-HA-NLS-fused cBRC1-HCR-BRC2 A1108G (canine (Canis lupus familiaris), UniProt Q8MKI9 993-1248, A1108G); assay: co-IP; lysates of HeLa cells stably expressing FLAG-HA-NLS-fused canine BRCA2 peptides, Benzonase-treated; FLAG M2 affinity agarose at 4 °C overnight; washed with 20 mM Tris-HCl pH 8.0, 150 mM KCl, 2 mM MgCl2, 10% glycerol; blots for endogenous RAD51 and PP2A-C subunit
T2 construct: canine BRCA2, residues 993-1248 with A1108G, a mutation reported in a canine mammary tumor; Very low expression; also called A1108G mutant; source: HeLa, stably expressing, in lysate
T2 sequence (looked up): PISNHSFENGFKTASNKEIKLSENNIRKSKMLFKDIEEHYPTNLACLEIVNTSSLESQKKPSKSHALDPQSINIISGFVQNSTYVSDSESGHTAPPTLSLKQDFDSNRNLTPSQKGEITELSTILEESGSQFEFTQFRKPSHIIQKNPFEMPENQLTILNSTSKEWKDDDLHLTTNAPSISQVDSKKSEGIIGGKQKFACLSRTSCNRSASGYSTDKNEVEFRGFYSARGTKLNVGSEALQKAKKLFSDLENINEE

B1: FLAG-HA-NLS-fused cBRC1-ΔHCR-BRC2 (canine BRCA2 993–1248 aa deleted with 1101–1133 aa) (domain or fragment, canine (Canis lupus familiaris), UniProt Q8MKI9 993-1248, looked up)
chain: PISNHSFENGFKTASNKEIKLSENNIRKSKMLFKDIEEHYPTNLACLEIVNTSSLESQKKPSKSHALDPQSINIISGFVQNSTYVSDSESGHTAPPTLSLKQDFDSNRHIIQKNPFEMPENQLTILNSTSKEWKDDDLHLTTNAPSISQVDSKKSEGIIGGKQKFACLSRTSCNRSASGYSTDKNEVEFRGFYSARGTKLNVGSEALQKAKKLFSDLENINEE
notes: canine BRCA2, residues 993-1248 with the HCR (1101-1133) deleted; also called HCR-deleted peptide; source: HeLa, stably expressing, in lysate
Which “fold change against cBRC1-HCR-BRC2” value [1] does the source give for B1 here?
The value was about 1.5 fold.

B2: VP16-fused canine RAD51 (natural protein, UniProt Q8MKI8 1-339, looked up)
chain: MAMQMQLEANADTSVEEESFGPQPISRLEQCGINANDVKKLEEAGFHTVEAVAYAPKKELISIKGISEAKADKILTEAAKLVPMGFTTATEFHQRRSEIIQITTGSKELDKLLQGGIETGSITEMFGEFRTGKTQICHTLAVTCQLPIDRGGGEGKAMYIDTEGTFRPERLLAVAERYGLSGSDVLDNVAYARGFNTDHQTQLLYQASAMMVESRYALLIVDSATALYRTDYSGRGELSARQMHLARFLRMLLRLADEFGVAVVITNQVVAQVDGAAMFAADPKKPIGGNIIAHASTTRLYLRKGRGETRICKIYDSPCLPEAEAMFAINADGVGDAKD
notes: canine RAD51, cloned into the pVP16 vector; also called pVP16-RAD51; source: HeLa, transiently transfected, mammalian two-hybrid fusion
With B2 as the binder, how does the “fold change against the wild-type peptide” value [2] read?
The value was 1.5 fold.

B3 was tested. Which “fold change against the wild-type peptide” value [3] did it give?
The value was 48 fold.
